Experimental data taken from patent US8097443B2, “Nucleotidyltransferases with enhanced nucleotide triphosphate flexibility” (priority 2007, dated 2012).

Tests used:
Assay in all cases: purified protein, by the assay type
Details in all cases: other: Wild-type RmlA, 10 mM glucose-1-phosphate, 0.05-25 μM enzyme, [NTP] + 5 mM MgCl2, 100 mM Tris-HCl pH 8.0, 37° C.
[1] = tested on: O=c1ccn([C@@H]2O[C@H](COP(=O)(O)OP(=O)(O)OP(=O)(O)O)[C@@H](O)[C@H]2O)c(=O)[nH]1
Procedure: (§1) In a typical reaction, sugar-1-phosphate (10 mM final) and enzyme (0.01-50 μM) were mixed with NTP (0.01-40 mM) in the presence of MgCl2 ([NTP]+5 mM) and 10 U/mL inorganic pyrophosphatase (Sigma, St. Louis, Mo., USA) in 100 mM Tris HCl, pH 8.0 (20 μL final volume). Typical reactions were analyzed after 10 min at 37° C. and reaction times were extended for some slow reacting sugar/NTP combinations. Reactions were stopped by the addition of 80 μL prewarmed HPLC buffer and heat inactivation (95° C., 5 min). The amount of enzyme used and the incubation time was adjusted so that the reactions never proceeded to more than 10% turnover for kinetics, or 30% for activity assays.
(§2) Kinetic Measurements—Pseudo first order kinetics were obtained by fixing glucose-1-phosphate at a saturating concentration of 10 mM (Barton et al. (2001) Nat Struct Biol 8, 545-551), and titrating NTPs. At least eight different concentrations in the range of ¼×KM to 4×KM (0.09-20 mM for dTTP, 0.2-40 mM for others) were assayed in triplicate. Reaction rates were confirmed to be linear over twice the incubation time. Activities were corrected for time and enzyme concentrations, and the kinetic curves were fit to the Michaelis-Menton equation using SigmaPlot with the Enzyme Kinetics module (SPSS, Chicago, Ill., USA).

[2] = tested on: Nc1ncnc2c1ncn2[C@H]1C[C@H](O)[C@@H](COP(=O)(O)OP(=O)(O)OP(=O)(O)O)O1
Procedure: as §1, §2

[3] = tested on: Nc1nc2c(ncn2[C@H]2C[C@H](O)[C@@H](COP(=O)(O)OP(=O)(O)OP(=O)(O)O)O2)c(=O)[nH]1
Procedure: as §1, §2

[4] = tested on: Nc1ccn([C@H]2C[C@H](O)[C@@H](COP(=O)(O)OP(=O)(O)OP(=O)(O)O)O2)c(=O)n1
Procedure: as §1, §2

[5] = tested on: Nc1nc2c(ncn2[C@@H]2O[C@H](COP(=O)(O)OP(=O)(O)OP(=O)(O)O)[C@@H](O)[C@H]2O)c(=O)[nH]1
Procedure: as §1, §2

[6] = tested on: Nc1ccn([C@@H]2O[C@H](COP(=O)(O)OP(=O)(O)OP(=O)(O)O)[C@@H](O)[C@H]2O)c(=O)n1
Procedure: as §1, §2

For “wt RmlA (glucose-1-phosphate thymidylyltransferase) (Salmonella enterica subsp. enterica serovar Typhimurium str. LT2)”, the Km [1] was 4.6 ± 0.7 mM, the kcat [1] was 2460 ± 130 min⁻¹ and the Km [2] was 7.8 ± 0.9 mM. It also gave a kcat [2] of 113 ± 5 min⁻¹, a Km [3] of 3.7 ± 0.5 mM and a kcat [3] of 127 ± 5 min⁻¹. It also gave a Km [4] of 10.5 ± 1.1 mM, a kcat [4] of 73 ± 3 min⁻¹ and a Km [5] of 8.5 ± 0.6 mM. It also gave a kcat [5] of 8.4 ± 0.2 min⁻¹, a Km [6] of 13.7 ± 1.1 mM and a kcat [6] of 5.9 ± 0.2 min⁻¹.
